Laboratory results: patent US20100092974A1, “METHODS FOR SCREENING FOR MODULATORS OF CCRL2” (The Board of Trustees of the Leland Stanford Junior …, priority 2008, published 2010)

Assays:
mCCRL2 = target: T1, mCCRL2 (Mus musculus, UniProt O35457); assay: immunofluorescence-based chemerin-binding assay, mCCRL2-HA L1.2; settings: read-out: EC50, untagged chemerin vs His8-tagged chemerin binding; 10 nM His8-tagged serum form chemerin, 30 min on ice, anti-His6 PE
T1 construct: The coding regions of mCCRL2, huCCRL2, mCRTH2, and huCCR10 were amplified from genomic DNA; expressed in transfected cells
T1 sequence (O35457 1-360): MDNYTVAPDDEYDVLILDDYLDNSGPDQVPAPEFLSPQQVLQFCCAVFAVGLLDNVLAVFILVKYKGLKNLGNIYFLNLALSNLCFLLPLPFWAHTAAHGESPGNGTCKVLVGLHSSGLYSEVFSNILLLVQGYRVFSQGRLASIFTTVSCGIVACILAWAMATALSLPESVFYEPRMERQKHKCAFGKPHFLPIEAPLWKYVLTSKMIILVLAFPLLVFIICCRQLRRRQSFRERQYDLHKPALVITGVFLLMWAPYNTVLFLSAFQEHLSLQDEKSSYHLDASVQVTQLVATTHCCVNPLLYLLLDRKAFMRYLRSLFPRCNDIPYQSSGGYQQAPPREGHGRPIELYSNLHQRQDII

[1] = system: mouse peritoneal mast cells; assay: in vitro transwell chemotaxis, peritoneal mast cells; assay type: cell-based; settings: SSChigh CD11b- c-kit+ cells
Experimental: For migration experiments using cell lines, 2.5×10^5 cells/100 μl chemotaxis media (RPMI+10% fetal calf serum) were added to the top wells of 5-um pore transwell inserts (Costar, Corning, N.Y., USA), and test samples in 600 μl media were added to the bottom wells. After incubating the transwell plates for 1.5 hours at 37° C., the bottom wells were harvested and flow cytometry was used to assess migration. For primary cell chemotaxis, 1×10^6 cells/100 μl were added to the top well, and, following a 2 hour incubation at 37° C., polystyrene beads (15.0 μm diameter, Polysciences, Warrington, Pa., USA) were added to each well to facilitate normalization of the cell count. The cells were then stained for c-kit, F4/80, and/or CD11b expression and analyzed by flow cytometry. A ratio was generated and percent input migration was calculated.

huCCRL2 = target: T2, huCCRL2 (Homo sapiens, UniProt O00421); assay: receptor internalization assay, huCCRL2-HA L1.2; assay type: cell-based; settings: 100 nM chemerin, 15 min
T2 construct: The coding regions of mCCRL2, huCCRL2, mCRTH2, and huCCR10 were amplified from genomic DNA; expressed in transfected cells
T2 sequence (O00421 1-344): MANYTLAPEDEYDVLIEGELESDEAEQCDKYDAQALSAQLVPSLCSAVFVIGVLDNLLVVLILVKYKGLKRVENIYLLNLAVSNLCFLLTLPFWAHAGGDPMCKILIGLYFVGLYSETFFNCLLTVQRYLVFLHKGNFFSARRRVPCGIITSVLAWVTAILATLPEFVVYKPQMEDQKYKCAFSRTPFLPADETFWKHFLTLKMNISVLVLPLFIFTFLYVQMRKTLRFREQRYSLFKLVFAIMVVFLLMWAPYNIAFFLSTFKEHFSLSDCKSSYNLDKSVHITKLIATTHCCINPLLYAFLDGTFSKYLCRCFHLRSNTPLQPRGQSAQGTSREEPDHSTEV
Experimental: The cells were then washed with 200 μl PBS and stained with mouse anti-HA (Covance, Inc) or mIgG1 isotype control, followed by staining with secondary anti-mouse IgG1 PE, fixed, and analyzed by flow cytometry.

[2] = system: mouse peritoneal mast cells; assay: chemerin internalization assay, peritoneal mast cells; assay type: cell-based; settings: 10 nM His8-tagged serum form chemerin
Experimental: The primary cells were also stained with F4/80 and c-kit mAbs. Secondary anti-His6 PE was added to the cells and incubated for 30 minutes on ice. […] The cells were incubated for 5 minutes on ice with either PBS or acid wash buffer (0.2 M acetic acid, 0.5 M NaCl), and then analyzed by flow cytometry. Mast cells were identified by gating on SSC^high F4/80^− c-kit^+ cells.

How did the EC50 (mCCRL2) turn out when “chemerin: protein ligand for signaling receptor CMKLR1; serum form human chemerin expressed in baculovirus-infected insect cells, His8-tag removed” was run?
Its EC50 is 45 nM.

And the transwell migration [1]?
Its transwell migration is “failed to migrate”.

What about the ligand-induced receptor internalization (huCCRL2) of the same substance?
The ligand-induced receptor internalization was “failed to internalize”.

What about the “chemerin internalization (acid wash)” value [2] of the same substance?
The value was “did not internalize”.
